Values belong to the molecule of their own block, whether it stands above or below them.
Assays:
[1] = system: dexamethasone-inducible Cdc25 gene; assay: Induction of Cdc25 mRNA and protein (northern and western blot); type: cell-based, N. plumbaginifolia; settings: inducible cell lines; 12 h induction
Method: FIG. 1a is a copy of a photographic representation of a northern blot hybridisation showing the induction of Cdc25 mRNA in tobacco cells containing a dexamethasone-inducible Cdc25 gene, in the absence of exogenous cytokinin. […] Total RNA was extracted from tobacco cells either in the absence of added dexamethasone (lane 0), or after 12 h induction with […], or 0.10 μM, or 1.00 μM, or 10.00 μM dexamethasone and then loaded onto agarose gels (60 μg aliquots RNA per lane), transferred to membrane support and probed with a Cdc25-specific probe.
FIG. 1b is a copy of a photographic representation of a western blot showing the induction of p67^Cdc25 protein in tobacco cells containing a dexamethasone-inducible Cdc25 gene, in the absence of exogenous cytokinin. […] Total protein was extracted from tobacco cells either in the absence of added dexamethasone (lane 1), or after 12 h induction with 0.01 μM dexamethasone (Lane 2), or 0.10 μM dexamethasone (Lane 3), or 1.00 μM dexamethasone (Lane 4), or 10.00 µM dexamethasone (Lane 5) and then loaded onto SDS/polyacrylamide gels ([…] aliquots total soluble p67^cdc25 protein per lane), transferred to membrane support and probed with antibody specific for the Cdc25-specific probe. p67^Cdc25 was detected by western blot of 50 μg aliquots of total soluble p67^Cdc25 protein. […]

[2] = system: tobacco cells containing a dexamethasone-inducible Cdc25 gene; settings: auxin only
[3] = system: tobacco Cdc2 protein, designated Cdc2a
[4] = molecular target: tobacco Cdc2 protein, designated Cdc2a; remark: listed apart in the source
[5] = system: plant Cdc2 enzyme; assay: In vitro activation of plant Cdc2 histone kinase by GST-Cdc25; type: biochemical, tobacco
Source text: FIG. 2e is a graphical representation showing the change in activity of Cdc2 histone kinase in transgenic tobacco cells containing a dexamethasone-inducible Cdc25 gene, progressing from the late G2 phase hormonal control point into division and following their stimulation with cytokinin. The Cdc2 histone kinase was purified using p13^suc1 beads and treated with GST-Cdc25 fusion protein that had been produced in Escherichia coli cells.
Both Cdc2 and Cdc25 enzyme activities were extracted from tobacco cells, by grinding the cells in liquid nitrogen. For Cdc2 extraction, NDE buffer containing 25 mM HEPES (pH 7.2) with protease and phosphatase inhibitors was used. For Cdc25 extraction, PDE buffer, containing 25 mM MOPS (pH 7.2), 100 mM NaCl, 10 mM DTT, 5 mM EDTA, 1mM EGTA, 1% NP-40, 50 mM NaF, 0.5 mM PMSF, 3 μg ml^−1 leupeptin, and 20 μg ml^−1 aprotinin, was used.
To measure Cdc2 activity, the phosphorylation of H1 histone was followed.
We tested this by investigating whether Cdc25 enzyme could activate Cdc2 from cells in prophase and whether the extent of activation by Cdc25 declined when activation had already occurred in vivo. […] After 12 hours, Cdc2 activity declined during anaphase and the enzyme then became unresponsive to GST-Cdc25, consistent with the anaphase decline in activity being due to proteolysis of cyclin, as observed for cyclin 1b in maize mitosis.

[6] = molecular target: tyrosine phosphorylated Cdc2 from arrested Cdc25-22 mutant fission yeast, P04551
Sequence of tyrosine phosphorylated Cdc2 from arrested Cdc25-22 mutant fission yeast, P04551 (P04551 whole entry, looked up, change not shown, tested part not stated): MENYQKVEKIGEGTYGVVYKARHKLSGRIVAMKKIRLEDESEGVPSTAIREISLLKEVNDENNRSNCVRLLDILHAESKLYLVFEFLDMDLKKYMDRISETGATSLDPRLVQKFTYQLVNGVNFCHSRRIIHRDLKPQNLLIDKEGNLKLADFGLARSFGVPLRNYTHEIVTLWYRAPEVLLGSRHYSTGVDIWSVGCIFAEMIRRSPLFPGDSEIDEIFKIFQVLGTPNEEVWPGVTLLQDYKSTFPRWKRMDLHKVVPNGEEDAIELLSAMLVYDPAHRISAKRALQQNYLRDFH

Molecule: C[C@@H]1C[C@H]2[C@@H]3CCC4=CC(=O)C=C[C@]4(C)[C@@]3(F)[C@@H](O)C[C@]2(C)[C@@]1(O)C(=O)CO [dexamethasone]
concentration at which Cdc25 mRNA and protein accumulated [1]: 0.01 to 10 µM | dexamethasone concentration that induced division ([2]; cells arrested at G2 phase hormonal control point, no cytokinin, 12 h induction): 0.01 to 10 µM | optimum concentration for induction of division ([2]; independent clones, G2-arrested cells): 0.1 µM

Molecule: plant Cdc25 protein (67 kDa tobacco protein)
Cdc2 histone kinase activity after incubation with immunoprecipitated Cdc25 [3]: non-transgenic plant cells also contain a Cdc25 activity, unambiguously of plant origin, that is both present following cytokinin stimulation and capable of activating plant Cdc2

B1: GST-Cdc25 catalytic core fusion protein synthesised in Escherichia coli (protein)
chain: SSHVEDLSLPCFAVKEDSLKRITQETLLGLLDGKFKDIFDKCIIIDCRFEYEYLGGHISTAVNLNTKQAIVDAFLSKPLTHRVALVFHCEHSAHRAPHLALHFRNTDRRMNSHRYPFLYYPEVYILHGGYKSFYENHKNRCDPINYVPMNDASHVMTCTKAMNNFKRNATFMRTKSYTFGQSVLASPDVNDSPTAMHSLSTLRRF
Cdc2 histone kinase activity after treatment with GST-Cdc25 [4]: excess bacterially-synthesised GST-Cdc25 could activate plant Cdc2 enzyme that was extracted in prophase between 3 hours and 12 hours

response of Cdc2 to GST-Cdc25 in anaphase ([5]; Cdc2 extracted after 12 hours): unresponsive | activation of plant Cdc2 enzyme ([5]; excess bacterially-synthesised GST-Cdc25, Cdc2 extracted in prophase between 3 hours and 12 hours): could activate plant Cdc2 enzyme
B2: GST-Cdc25: recombinant GST-Cdc25 catalytic core fusion protein synthesised in Escherichia coli (protein)
chain: B1 chain
modifications: left off: a dimerising Fc or GST
notes: recombinant GST-Cdc25 catalytic core fusion protein synthesised in Escherichia coli

B3: fission yeast Cdc25 phosphoprotein phosphatase expressed in transgenic tobacco cells (protein)
chain: MDSPLSSLSFTNTLSGKRNVLRPAARELKLMSDRNANQELDFFFPKSKHIASTLVDPFGKTCSTASPASSLAADMSMNMHIDESPALPTPRRTLFRSLSCTVETPLANKTIVSPLPESPSNDALTESYFFRQPASKYSITQDSPRVSSTIAYSFKPKASIALNTTKSEATRSSLSSSSFDSYLRPNVSRSRSSGNAPPFLRSRSSSSYSINKKKGTSGGQATRHLTYALSRTCSQSSNTTSLLESCLTDDTDDFELMSDHEDTFTMGKVADLPESSVELVEDAASIQRPNSDFGACNDNSLDDLFQASPIKPIDMLPKINKDIAFPSLKVRSPSPMAFAMQEDAEYDEQDTPVLRRTQSMFLNSTRLGLFKSQDLVCVTPKQSTKESERFISSHVEDLSLPCFAVKEDSLKRITQETLLGLLDGKFKDIFDKCIIIDCRFEYEYLGGHISTAVNLNTKQAIVDAFLSKPLTHRVALVFHCEHSAHRAPHLALHFRNTDRRMNSHRYPFLYYPEVYILHGGYKSFYENHKNRCDPINYVPMNDASHVMTCTKAMNNFKRNATFMRTKSYTFGQSVLASPDVNDSPTAMHSLSTLRRF
activation of yeast Cdc2 H1 histone kinase (phosphorylation of H1 histone) [6]: appearance of Cdc25 activity, which was detected by its activation of yeast Cdc2 Hi histone kinase

Reference: patent US20030172404A1, “Method of modifying plant characters by the targeted expression of a cell cycle control protein” (priority 1999, published 2003)
